# Measurements: the supplement of paper PMC7877785
# ± gives the uncertainty stated by the source.
# Assay: self-splicing fitness, log relative to wild type (ln ratio); higher = more splicing; Tetrahymena group I intron in knt gene, E. coli kanamycin selection, DiMSum; sequences stand for … in CUCUCU…GGAGGGAAAAGUUAUCAGGCAUGCACCUGGUAGCUAGUCUUUAAACCAAUAGAUUGCAUCGGUUUAAAAGGCAAGACCGUCAAAUUGCGGGAAAGGGGUCAACAGCCGUUCAGUACCAAGUCUCAGGGGAAACUUUGAGAUGGCCUUGCAAAGGGUAUGGUAAUAAGCUGACGGACAUGGUCCUAACCACGCAGCCAAGUCCUAAGUCAACAGAUCUUCUGUUGAUAUGGAUGCAGUUCACAGACUAAAUGUCGGUCGGGGAAGAUGUAUUCUUCUCAUAAGAUAUAGUCGGACCUCUCCUUAAUGGGAGCUAGCGGAUGAAGUGAUGCAACACUGGAGCCGCUGGGAACUAAUUUGUAUGCGAAAGUAUAUUGAUUAGUUUUGGAGUACUCGUGGUCG
# Procedure, shortened: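 DiMSum derived fitness as the error-weighted combination of fold changes across replicates, kanamycin versus no kanamycin, normalised to wild type. E. coli BL21(DE3) held the library, which randomised all eight P1ex-region intron nucleotides within the knt kanamycin-resistance gene on pET-22b(+). Six replicate transformations grew overnight at 37°C or 30°C on LB agar with or without 25 μg/mL kanamycin, also containing 100 μg/mL carbenicillin, 50 μM IPTG and 0.2% rhamnose, and pooled colonies were amplicon-sequenced on an Illumina HiSeq 2500.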
Sequence,self-splicing fitness (ln) (30 °C),self-splicing fitness (ln) (37 °C)
GUGGAGCAAUAUUACGUGUU,-4.54 ± 0.47,–
GUGGAGCAAUAUUACGUUUC,-3.39 ± 0.37,-1.9 ± 0.21
GUGUAGCAAUAUUACGAACU,-1.57 ± 0.25,-0.299 ± 0.2
GUGUAGCAAUAUUACGAAUG,–,-1.51 ± 0.25
GUGUAGCAAUAUUACGAAUU,-2.33 ± 0.064,-1.85 ± 0.097
GUGUAGCAAUAUUACGACAG,-2.07 ± 0.42,–
GUGUAGCAAUAUUACGACCU,-0.216 ± 0.27,0.601 ± 0.24
GUGUAGCAAUAUUACGACUG,-1.71 ± 0.25,-1.47 ± 0.42
GUGUAGCAAUAUUACGAGUC,-1.74 ± 0.36,-1.03 ± 0.3
GUGUAGCAAUAUUACGAUCA,-0.818 ± 0.13,-0.543 ± 0.14
GUGUAGCAAUAUUACGCCCG,-2.51 ± 0.35,-0.74 ± 0.23
GUGUAGCAAUAUUACGCCGA,–,-2.39 ± 0.42
GUGUAGCAAUAUUACGCUAC,-2.35 ± 0.49,–
GUGUAGCAAUAUUACGGACU,-0.979 ± 0.1,-0.103 ± 0.12
GUGUAGCAAUAUUACGGAUA,-2.46 ± 0.23,-0.0303 ± 0.17
GUGUAGCAAUAUUACGGAUC,-1.04 ± 0.13,0.406 ± 0.17
GUGUAGCAAUAUUACGGCAU,-3.48 ± 0.41,-0.582 ± 0.2
GUGUAGCAAUAUUACGGCCG,-0.432 ± 0.22,-0.71 ± 0.34
GUGUAGCAAUAUUACGGCGC,-2.06 ± 0.44,-0.968 ± 0.32
GUGUAGCAAUAUUACGUACG,-2.64 ± 0.23,-1.14 ± 0.16
GUGUAGCAAUAUUACGUAGC,-3.09 ± 0.23,-1.41 ± 0.28
GUGUAGCAAUAUUACGUCGU,-1.67 ± 0.15,-1.1 ± 0.16
GUGUAGCAAUAUUACGUGGA,-3.41 ± 0.3,-2.04 ± 0.23
GUGUAGCAAUAUUACGUGGU,-3.96 ± 0.27,-1.17 ± 0.22
GUGUAGCAAUAUUACGUGUG,-3.21 ± 0.18,-1.69 ± 0.15

Sequence,self-splicing fitness (ln) (30 °C),self-splicing fitness (ln) (37 °C)
GUGUAGCAAUAUUACGUUAA,-2.21 ± 0.2,-1.8 ± 0.16
GUGUAGCAAUAUUACGUUGG,-4.05 ± 0.42,-2.06 ± 0.21
GUUAAGCAAUAUUACGAAGC,-2.32 ± 0.41,-1.82 ± 0.3
GUUAAGCAAUAUUACGAAUA,-1.19 ± 0.25,-0.46 ± 0.32
GUUAAGCAAUAUUACGACGA,-1.13 ± 0.11,-1.14 ± 0.12
GUUAAGCAAUAUUACGCAAU,-3.09 ± 0.44,–
GUUAAGCAAUAUUACGCCAC,-3.63 ± 0.4,-3.27 ± 0.47
GUUAAGCAAUAUUACGCUGC,-3.43 ± 0.33,-1.49 ± 0.32
GUUAAGCAAUAUUACGGAUC,-0.695 ± 0.09,0.135 ± 0.12
GUUAAGCAAUAUUACGGCCA,-0.63 ± 0.17,-0.359 ± 0.23
GUUAAGCAAUAUUACGGCCG,-1.61 ± 0.2,-0.597 ± 0.37
GUUAAGCAAUAUUACGGCGC,0.441 ± 0.15,-0.509 ± 0.14
GUUAAGCAAUAUUACGGGCC,–,-2.12 ± 0.37
GUUAAGCAAUAUUACGGUCG,-1.32 ± 0.066,-0.767 ± 0.094
GUUAAGCAAUAUUACGGUGG,-3.52 ± 0.17,-1.78 ± 0.15
GUUAAGCAAUAUUACGUCAA,-1.38 ± 0.11,-1.33 ± 0.13
GUUAAGCAAUAUUACGUCGG,-2.75 ± 0.2,-2.55 ± 0.25
GUUAAGCAAUAUUACGUCUC,-0.932 ± 0.1,-0.514 ± 0.12
GUUAAGCAAUAUUACGUCUG,-1.38 ± 0.098,-1.3 ± 0.13
GUUAAGCAAUAUUACGUGCU,-1.6 ± 0.087,-0.714 ± 0.11
GUUAAGCAAUAUUACGUUUG,-2.55 ± 0.12,-1.86 ± 0.17
GUUCAGCAAUAUUACGACUC,0.0553 ± 0.47,–
GUUCAGCAAUAUUACGAGGG,-2.72 ± 0.19,-0.563 ± 0.16
GUUCAGCAAUAUUACGAGUU,-1.43 ± 0.088,-0.77 ± 0.086
GUUCAGCAAUAUUACGCCCA,-0.553 ± 0.1,-1.26 ± 0.1
